Data taken from the Human Domainome abundance scans (Beltran et al. 2025).
± gives the uncertainty stated by the source.

B1: Integrator complex subunit 12, residues 155 to 213; numbered along this chain, Q96CB8 (parent)
chain: AMEMGLACVVCRQMMVASGNQLVECQECHNLYHRDCHKPQVTDKEANDPRLVWYCARCT

Variants of: B1
Assay: abundance fitness (aPCA) (normalised: wild type 0, dead -1); higher = more abundant; growth selection in yeast, the domain comes from the species named
Details: Homo sapiens

Abundance fitness: each site, then its substitutions
N30: G 0.03 ± 0.039 | T -0.105 ± 0.058 | F -0.179 ± 0.045 | Y -0.081 ± 0.045 | H -0.049 ± 0.065 | I -0.231 ± 0.041 | S -0.071 ± 0.043 | C 0.013 ± 0.044 | K 0.048 ± 0.095 | L -0.002 ± 0.047 | V -0.129 ± 0.039 | P -0.706 ± 0.11 | Q 0.028 ± 0.084 | R -0.01 ± 0.04 | E -0.103 ± 0.072 | W -0.091 ± 0.086 | D 0.079 ± 0.041
D43: W -0.189 ± 0.041 | Q -0.123 ± 0.048 | T -0.08 ± 0.047 | L -0.098 ± 0.034 | K -0.163 ± 0.048 | S -0.074 ± 0.038 | I -0.073 ± 0.06 | R -0.25 ± 0.032 | V -0.057 ± 0.039 | N 0.043 ± 0.058 | F -0.118 ± 0.082 | H -0.155 ± 0.071 | A -0.05 ± 0.039 | P -0.093 ± 0.041 | Y -0.161 ± 0.067 | E -0.037 ± 0.043 | C -0.078 ± 0.06 | M -0.056 ± 0.045
Q40: H -0.055 ± 0.093 | Y -0.264 ± 0.093 | G 0.001 ± 0.037 | L -0.045 ± 0.045 | C 0.148 ± 0.062 | V -0.063 ± 0.041 | W -0.102 ± 0.057 | T 0.02 ± 0.063 | F -0.023 ± 0.086 | P -0.009 ± 0.051 | I 0.023 ± 0.098 | N 0.051 ± 0.075 | M -0.112 ± 0.064 | E -0.04 ± 0.049 | A -0.002 ± 0.043 | K -0.035 ± 0.061 | D -0.07 ± 0.071
A46: V 0.008 ± 0.043 | C -0.149 ± 0.067 | M -0.201 ± 0.068 | H -0.181 ± 0.072 | W -0.063 ± 0.052 | R -0.089 ± 0.039 | Q -0.079 ± 0.062 | L 0.003 ± 0.048 | F 0.07 ± 0.077 | I -0.077 ± 0.075 | N -0.082 ± 0.08 | E -0.061 ± 0.053 | D -0.092 ± 0.072 | P -0.202 ± 0.071 | S -0.075 ± 0.052 | K 0.05 ± 0.062 | T -0.136 ± 0.068 | Y -0.029 ± 0.071 | G -0.029 ± 0.038
Y32: H -0.254 ± 0.047 | L -0.152 ± 0.038 | R -0.308 ± 0.038 | Q -0.3 ± 0.067 | T -0.263 ± 0.044 | G -0.335 ± 0.035 | D -0.525 ± 0.044 | K -0.514 ± 0.066 | F 0.003 ± 0.035 | S -0.315 ± 0.033 | C -0.207 ± 0.04 | A -0.128 ± 0.039 | W 0.045 ± 0.058 | M -0.143 ± 0.055 | V -0.159 ± 0.032 | E -0.388 ± 0.068 | P -0.611 ± 0.056
L31: H 0.057 ± 0.04 | I 0.01 ± 0.036 | W 0.101 ± 0.049 | Q 0.084 ± 0.07 | Y 0.047 ± 0.038 | T 0.055 ± 0.039 | G -0.048 ± 0.03 | N 0.027 ± 0.036 | E -0.358 ± 0.059 | A 0.04 ± 0.033 | S 0.046 ± 0.032 | R 0.091 ± 0.034 | P -0.164 ± 0.052 | K 0.103 ± 0.055 | F 0.075 ± 0.034 | M -0.008 ± 0.051 | C 0.047 ± 0.035
K38: Q -0.015 ± 0.054 | Y -0.134 ± 0.071 | P -0.309 ± 0.05 | E 0.008 ± 0.046 | N -0.209 ± 0.085 | R -0.028 ± 0.04 | V 0.035 ± 0.046 | S 0.016 ± 0.041 | T 0.011 ± 0.045 | D 0.081 ± 0.074 | G -0.15 ± 0.05 | F -0.139 ± 0.073 | W -0.341 ± 0.055 | L -0.096 ± 0.041 | M -0.05 ± 0.049 | C -0.089 ± 0.077
H29: L -0.275 ± 0.039 | K 0.084 ± 0.073 | C -0.185 ± 0.037 | F -0.19 ± 0.036 | Y -0.182 ± 0.037 | D -0.26 ± 0.035 | T -0.216 ± 0.042 | R -0.053 ± 0.033 | G -0.016 ± 0.03 | W -0.426 ± 0.066 | V -0.438 ± 0.035 | N -0.117 ± 0.036 | P -0.612 ± 0.057 | M -0.097 ± 0.058
K44: R -0.042 ± 0.043 | T 0.043 ± 0.048 | S -0.074 ± 0.046 | I 0.024 ± 0.082 | E 0.042 ± 0.052 | F -0.139 ± 0.073 | C 0.059 ± 0.11 | P -0.076 ± 0.054 | N 0.119 ± 0.12 | Y -0.486 ± 0.07 | H -0.124 ± 0.079 | Q -0.081 ± 0.072 | L -0.121 ± 0.049 | M -0.036 ± 0.05 | G 0.023 ± 0.04 | W -0.306 ± 0.067 | A 0.008 ± 0.046 | D 0.078 ± 0.059 | V -0.038 ± 0.045
V41: N -0.481 ± 0.096 | W -0.314 ± 0.056 | C -0.276 ± 0.081 | E -0.303 ± 0.059 | F -0.175 ± 0.097 | T -0.165 ± 0.057 | R -0.308 ± 0.038 | S -0.204 ± 0.05 | I 0.135 ± 0.058 | G -0.235 ± 0.041 | Y -0.346 ± 0.12 | H -0.639 ± 0.11 | L -0.011 ± 0.045
